Measured values published in patent publication US10654915B2, “Antibodies useful in passive influenza immunization” (priority 2011, dated 2020).
Like-named read-outs stand apart in the source and are kept apart here.

What was measured:
[1] = tested on: H1N1 Influenza A/Ca/04/09; experiment: Comparison to treatment with Tamiflu in infected mice; type: in vivo
[2] = molecular target: H3N2 A/Perth/16/2009 HA; type: binding, influenza A
[3] = molecular target: H3N2 A/New York/55/2004 HA; experiment: Affinity by FortéBio; type: binding, influenza A
[4] = molecular target: H3N2 A/Hong Kong/8/68 HA; type: binding, influenza A
[5] = molecular target: H7N7 A/Netherlands/219/03 HA; type: binding, influenza A
[6] = molecular target: H7N3 A/Canada/rv444/04 HA; type: binding, influenza A
[7] = tested on: H3N2 A/Perth/16/2009; experiment: MDCK monolayer microneutralization assay; type: cell-based, influenza A
[8] = tested on: H3 A/Phillipines/2/82 x-79; experiment: MDCK monolayer microneutralization assay; type: cell-based, influenza A
[9] = tested on: H3 A/Udorn/307/1976; experiment: MDCK monolayer microneutralization assay; type: cell-based, influenza A
[10] = tested on: H3N2 A/New York/55/2004; experiment: MDCK monolayer microneutralization assay; type: cell-based, influenza A
[11] = tested on: H3N2 A/Wisconsin/67/2005; experiment: MDCK monolayer microneutralization assay; type: cell-based, influenza A
[12] = tested on: H3N2 A/Hong Kong/8/68 (A/HongKong/68); experiment: MDCK monolayer microneutralization assay; type: cell-based, influenza A
[13] = tested on: H3 A/SW/MN/02719; type: cell-based, influenza A
[14] = tested on: H4 (H4N4) A/Bufflehead; type: cell-based, influenza A
[15] = tested on: H7N3 A/Canada/rv444/04; type: cell-based, influenza A
[16] = tested on: H7N7 A/Netherlands/219/03; type: cell-based, influenza A
[17] = tested on: H7 A/Sanderling/A106-125; experiment: MDCK monolayer microneutralization assay; type: cell-based, influenza A; settings: H7 A/Sanderling/A106-125, bird virus
[18] = tested on: H7 A/Redknot/NJ/1523470/06; experiment: MDCK monolayer microneutralization assay; type: cell-based, influenza A; settings: H7 A/Redknot/NJ/1523470/06, bird virus
[19] = tested on: H7 A/Ruddy Turnstone/A106-892; experiment: MDCK monolayer microneutralization assay; type: cell-based, influenza A; settings: H7 A/Ruddy Turnstone/A106-892, bird virus
[20] = tested on: H10 (H10N7) A/Northern Shoveler; type: cell-based, influenza A
[21] = tested on: H3N2: A/Perth/16/09; parameters: species or system mice; settings: mouse, in vivo, ip, 10 mg/kg
[22] = tested on: H7N3: A/Red Knot/NJ/1523470/06; parameters: species or system mice; settings: mouse, in vivo, ip, 10 mg/kg
[23] = tested on: A/Ca/04/09 (H1N1); experiment: In vivo efficacy, treatment at Day 2; parameters: species or system mice; settings: IP at Day 2, 10 mg/kg (mixture 10 mg/kg each), FIGS. 6A, 6C
[24] = tested on: Philippines 2/82; parameters: species or system mice; settings: mouse, in vivo
[25] = tested on: H3; experiment: Binding by MAB579 in vitro (FIG. 2); parameters: species or system influenza A; settings: H3, FIG. 2
[26] = tested on: H7; experiment: Binding by MAB579 in vitro (FIG. 2); parameters: species or system influenza A; settings: H7, FIG. 2
[27] = tested on: H1; experiment: Binding by MAB579 in vitro (FIG. 2); parameters: species or system influenza A; settings: H1, FIG. 2
[28] = molecular target: HA of clades spanning Group 2; experiment: Standard FortéBio assay (FIG. 3B); type: binding, influenza A; settings: Group 2, FIG. 3B
[29] = molecular target: H1 HA; type: binding, influenza A; settings: read-out: affinity
[30] = molecular target: H5 HA; type: binding, influenza A; settings: read-out: affinity
[31] = molecular target: H3 HA; type: binding, influenza A; settings: read-out: affinity
[32] = tested on: H1N1; type: cell-based, influenza A
[33] = tested on: H7N3; type: cell-based, influenza A
[34] = tested on: H5N1; type: cell-based, influenza A
[35] = tested on: H9N2; type: cell-based, influenza A

## CCOC(=O)C1=C[C@@H](OC(CC)CC)[C@H](NC(C)=O)[C@@H](N)C1 [Tamiflu, oseltamivir phosphate, reference compound]
[1]; 10 mice per group, treatment from Day +1, to Day 14
  survival: all but two mice were dead before eight days post infection
[1]; by Day 14
  weight attained, of the original weight: 92%
[1]; treatment from Day +1
  day at which decline in weight was reversed: ≤ 6 days

B1: MAB579 (antibody, V domains shown)
VH: QVQLVQSGAEVKKPGASVKVSCKTSGYTFTAYTIHWVRQAPGQRLEWMGWINAGNGHTKYSQRFKGRVTITRDTSARTTYMELRSLTSEDTALYFCARGPETYYYDKTNWLNSHPDEYFQHWGHGTQVTVSS
VL: DIQMTQSPSTLSASVGDRVTITCRASQTINNYLAWYQQKPGKAPKLLIYKASSLESGVPSRFSGSGSGTEFTLTISSLQPDDFATYYCQEYNNDSPLTFGGGTKVEIK
modifications: CHAIN (1)...(132) MAB579 heavy chain sequence of variable domain; DOMAIN (31)...(35) CDR1; DOMAIN (50)...(67) CDR2; DOMAIN (99)...(121) CDR3; CHAIN (1)...(108) MAB579 light chain sequence of variable domain; DOMAIN (24)...(34) CDR1; DOMAIN (50)...(57) CDR2; DOMAIN (89)...(98) CDR3
[2]; read-out: Affinity by FortéBio
  Kd: 0.7 nM
[2]; read-out: KD
  Kd: 0.8 nM
[3]
  Kd: 0.2 nM
[4]
  Kd: 0.2 nM
[5]; read-out: Affinity by FortéBio
  Kd: 0.4 nM
[5]; read-out: KD
  Kd: 0.4 nM
[6]
  Kd: 0.6 nM
[7]; H3 A/Perth/16/2009
  IC50: 0.2 µg/mL
[7]; MAB579 vs CR8020 EC50, H3N2 A/Perth/16/2009
  Potency Difference: 40x
[7]; in vitro neutralization, H3N2 A/Perth/16/2009
  EC50: 0.05 µg/mL
[8]
  IC50: 0.9 µg/mL
[9]
  IC50: 1.9 µg/mL
[10]; H3 A/New York/55/2004*
  IC50: 1.1 µg/mL
[10]; MAB579 vs CR8020 EC50, H3N2 A/New York/55/2004
  Potency Difference: 5x
[10]; in vitro neutralization, H3N2 A/New York/55/2004
  EC50: 2.0 µg/mL
[11]; H3 A/Wisconsin/67/2005
  IC50: 1.0 µg/mL
[11]; MAB579 vs CR8020 EC50, H3N2 A/Wisconsin/67/2005
  Potency Difference: 3x
[11]; in vitro neutralization, H3N2 A/Wisconsin/67/2005
  EC50: 1.0 µg/mL
[12]; H3 A/HongKong/68
  IC50: 2.8 µg/mL
[12]; MAB579 vs CR8020 EC50, H3N2 A/Hong Kong/8/68
  Potency Difference: 3x
[12]; in vitro neutralization, H3N2 A/Hong Kong/8/68
  EC50: 2.0 µg/mL
[13]
  IC50: 3.9 µg/mL
[14]
  EC50: 15.0 µg/mL
  IC50: 15.5 µg/mL
  Potency Difference: 3x
[15]
  EC50: 0.5 µg/mL
  IC50: 1.6 µg/mL
[16]
  EC50: 0.7 µg/mL
  IC50: 0.6 µg/mL
  Potency Difference: 20x
[17]
  IC50: >20 µg/mL
[18]
  IC50: >20 µg/mL
[19]
  IC50: >20 µg/mL
[20]
  EC50: 0.8 µg/mL
  IC50: 0.8 µg/mL
[21]
  therapeutic effectiveness (survival): essentially fully effective
[22]
  therapeutic effectiveness (survival): essentially fully effective
[23]
  protection / survival: no survivors after 10 days
[24]
  protection / survival: effective
[25]
  binding affinity (in words): tightly bound
[26]
  binding affinity (in words): tightly bound
[27]
  binding affinity (in words): negligible binding affinity
[28]
  affinity across clades (in words): sub-nM affinity

B2: MAB8 (antibody)
VH: EVQLVESGGGLVKPGGSLRLSCAASGFTFSTYTMSWVRQAPGQGLEWVSSITRTSSNIYYADSVEGRFTISRDNAKNSLYLQMHSLRVEDTAVYYCARISGVVGPVPFDYWGQGTLITVSS
light: DIQMTQSPSSLSASVGDRVTITCRASQTISKYLNWYQQKPGRAPKLLIYSASSLQSGVPSRFTGSGSGTDFTLTITSLQPEDFATYYCQQSYRPSQITFGPGTKVDIK
modifications: CHAIN (1)...(121) MAB8 heavy chain sequence of variable domain; CHAIN (1)...(108) MAB8 light chain sequence
[29]
  Kd: 9 nM
[30]
  Kd: 0.2 nM
[31]
  Kd: 16 nM
[32]
  neutralization of infection (in words): does not neutralize infection
[33]
  neutralization of infection (in words): does not neutralize infection
[34]
  neutralization of infection (in words): does not neutralize infection
[35]
  neutralization of infection (in words): does not neutralize infection
